Entries after “also recorded” stand apart in the source; their conditions may differ. Where two headings read alike, the source gives them in different places.
How the values were obtained:
[1] = molecular target: T1, HIV-RT (Human immunodeficiency virus type 1 group M subtype B, UniProt P04585); assay: EMSA binding to intact HIV-RT
T1 construct: The 66 kDa domain, p66, contains an RNase H domain in addition to the DNA polymerase domain; purchased Amersham Bioscience (Piscataway, N.J.)
Procedure: Electrophoresis Mobility Shift Assay (EMSA). One of the selected thioaptamers (R12-2) was used to test the specific binding to RNase H. R12-2 was labeled with fluorescein at the 5′-end by enzymatic synthesis and was incubated with increasing concentrations of HIV-RT RNase H in Tris-HCl buffer (50 mM. pH 8), MgCl2 (10 mM) and DTT (40 mM) at 37° C. for 30 minutes. The reaction mixture was loaded on an 8% native polyacrylamide gel, electrophoresed and analyzed on the Flor Chem 8800 imager (Alpha Innotech, CA). Similar experiment was performed with the E.coli RNase H, to test whether R12-2 binds to the RNase H from E.coli.
Next, the binding of R12-2 to the intact HIV-RT by EMSA methods was also determined. In FIG. 4a, the protein in the band was detected by staining the gel with Coomassie blue.

[2] = molecular target: T2, RNase H activity of intact HIV-RT (Human immunodeficiency virus type 1 group M subtype B, UniProt P04585); assay: HIV-RT RNase H activity assay (3H-labeled DNA:RNA hybrid); format: biochemical; conditions: intact HIV-RT 0.35 μM, R12-2 0.5-2 μM, FIG. 5
T2 construct: The 66 kDa domain, p66, contains an RNase H domain in addition to the DNA polymerase domain; purchased Amersham Bioscience (Piscataway, N.J.)
Procedure: HIV-RT RNase H activity assay. A DNA:RNA heteroduplex containing radiolabeled RNA was prepared as a substrate for the RNase H. A tritium-labeled RNA molecule, the stem loop 2 of the HIV psi-RNA (25), was made by in-vitro transcription using T7 RNA polymerase with a mixture of ATP, CTP, GTP and ^3H-UTP. Transcribed RNA was purified by centrifugation using Microcon YM-3 filters, to remove NTPs and other short RNA sequences. The purified RNA was annealed with the complementary DNA strand to give the DNA:RNA hybrid where the RNA strand is ^3H-labeled. HIV-RT (0.35 μM) was incubated with R12-2 thioaptamer (0.5-2 μM) in a buffer containing Tris-HCl (50 mM, pH 8.0), MgCl2 (6 mM), DTT (10 mM) and KCl (80 mM) for 30 min at 37° C. To this mixture, labeled DNA-RNA hybrid (40 000 cpm) was added to a final volume of 50 μl and incubated at 37° C. for 20 min. The reaction was quenched by addition of 150 μl of 10% trichloroacetic acid and the mixture was placed on ice for 10 min. The reaction mixture was filtered, washed and the amount of radioactivity in the filtrate was measured using a scintillation counter (Beckman Coulter, CA). The amount of radioactivity in the filtrate is regarded as proportional to RNase H activity.
The ability of the thioaptamer R12-2 to inhibit RNase H activity was tested using a radio-labeled substrate of a DNA:RNA hybrid duplex, as described in Methods. […]

[3] = molecular target: T3, isolated domain of RNase H HIV-RT (Human immunodeficiency virus type 1 group M subtype B, UniProt P04585); assay: NMR titration of R12-2 with isolated RNase H domain; format: binding, HIV-1; conditions: addition of RNase H to R12-2
T3 construct: encodes the 15 kDa RNase H domain of HIV-RT; made in house; host or cells: E. coli
Procedure: NMR Spectroscopy. Uniformly ^15N labeled RNase H and chemically synthesized R12-2 were used to monitor the binding of the R12-2 thioaptamer to the isolated domain of RNase H. The oligonucleotide concentrations were calculated from the absorbance value and using the molar absorption coefficients calculated using the nearest neighbor parameters. ^15N-HSQC spectra (26) of the isolated RNase H in the presence of 25 mM MgCl2 were acquired on Varian UnityPlus 750 MHz instrument equipped with pulse field gradients and using triple resonance probes. One dimensional proton NMR and 2D NOESY spectra (250 ms mixing time) of R12-2 thioaptamer in 95% H2O/5% D2O were collected at 750 MHz. The signals from the […] imino protons of R12-2, that are very sensitive to changes in the DNA conformation, were monitored during the titration of RNase H to the R12-2.

[4] = molecular target: T4, isolated RNase H domain (Human immunodeficiency virus type 1 group M subtype B, UniProt P04585); assay: RNase H activity of the isolated RNase H domain; format: biochemical, HIV
T4 construct: encodes the 15 kDa RNase H domain of HIV-RT; made in house; host or cells: E. coli

[5] = tested on: HIV-1 SF162 (R5) in U373-MAGI-CCR5 cells; assay: HIV infection of ODN-transfected U373-MAGI-CCR5 cells; format: cell-based
Source text: Viruses and cells. HIV-1 SF162-R5 is a primary isolate that uses CCR5 as a coreceptor (R5), and was obtained from the NIH AIDS Research and Reference Reagent Program. U373-MAGI-CCR5 cells have modifications of the U373 astrocytoma adherent cells that allow use for HIV transfection and infection studies. U373-MAGI-CCR5 cells express β-gal under the control of HIV LTR, which is trans-activated by the HIV Tat protein in relation to the level of virus replication. In addition, these cells express CD4 and the human chemokine receptor CCR5 on its surface, which allow infection by primary HIV strains. U373 cells are propagated in 90% DMEM, 10% fetal bovine serum, 0.2 mg/ml G418, 0.1 mg/ml hydromycin B, and 1.0 μg/ml puromycin. For transfection and infection studies, U373 cells were maintained in 90% DMEM, 10% fetal bovine serum, and 1% penicillin/streptomycin. Thioaptamer RNase H-specific R12-2, control AP-1-specific or scrambled ODNs were transfected into the cells 24 hr prior to infection using Oligofectamine liposomes, according to the manufacturer's instructions (Invitrogen).
Infection of ODN-transfected U373-MAGI-CCR5 cells. Transfected cells and control cells were infected with HIV at m.o.i. of 0.003 (which consistently gives high levels of viral production) for 2 hr. Equal volumes of medium were then added and infection was continued for 48 hr. HIV replication was quantitated in cell lysates by measurement of β-gal activity, determined by luminometry using the β-Glo kit (Promega), according to the manufacturer's guidelines. β-gal activity is expressed as relative light units (RLU). To determine HIV TCID50 in U373-MAGI-CCR5 cells, serial dilutions (10×) of SF162-R5 virus supernatant were innoculated onto a 24-well plate containing 3×10^4 U373 cells for 2 hr, then equal volumes of complete medium were added, and infection was continued for 48 hr. Cells then were lysed and assayed for HIV-directed β-gal expression, and TCID50 (50% tissue culture infective dose) was calculated from quadruplicates. The p24 antigen capture assay (Beckman-Coulter) was used to determine virus production in some studies, measured by p24 antigen concentration in the culture supernatants harvested at day 7 post-infection.

B1: R12-2: 62-mer duplex DNA thioaptamer, monothiophosphate 5′ to dA, selected against RNase H domain of HIV-RT; probably SEQ ID NOS. 1 and 2 (nucleic acid)
chain 1: AATGCTTCCACGAGCCTTTCGGGGTTGGTGTACAGTGGATGGCTGCGAGGCGGTAGTCTATTC
chain 2: GAATAGACTACCGCCTCGCAGCCATCCACTGTACACCAACCCCGAAAGGCTCGTGGAAGCAT
modifications: DNA, backbone and methylation of C not given here; duplex DNA thioaptamer, monothiophosphate 5' to dA
notes: 62-mer duplex DNA thioaptamer, monothiophosphate 5′ to dA, selected against RNase H domain of HIV-RT; 1 and 2
- binding to intact HIV-RT (EMSA) ([1]; FIG. 4A): is binding
- Kd ([1]; intact HIV-RT, EMSA bound band intensity, Hill Plot, FIG. 4B, read-out: dissociation constant Kd): 70 nM
- Kd ([1]; specific binding to HIV-RT, read-out: binding constant): 70 nM
- inhibition of RNase H activity [2]: inhibit; also recorded: shows inhibition
- binding to isolated RNase H domain (NMR, imino proton signal broadening) [3]: binding
- effect against the isolated RNase H domain [4]: not effective
- reduction of infection ([5]; Oligofectamine transfection 24 h prior to infection, HIV-SF162 m.o.i. 0.003, compared with untransfected or OF-only cells, FIG. 6): greater than 75%
- inhibition of the virus at high m.o.i. ([5]; R12-2 0.05 μg/ml, inocula m.o.i. 0.05 to 0.0005, FIG. 8): significant inhibition
- reduction of virus production ([5]; high m.o.i.): more than 50%
- suppression of virus compared with AZT ([5]; m.o.i.≦0.005, AZT 10 μM, FIG. 8): comparable to that seen with AZT
- IC50 ([5]; transfected 24 hrs prior to infection with HIV SF162, 48 hrs, doses 0.03 to 2.0 μg/ml, FIG. 7, read-out: IC50 (inhibition of HIV infection)): < 100 nM
- effect on HIV infection / viral production ([5]; transfected U373-MAGI-CCR5 cells, FIG. 6): inhibits; also recorded: markedly reduces

Source: US20060281702A1, “Combinatorial selection of phosphorothioate aptamers for RNases” (priority 2005, published 2006)
